Measured values taken from publication PMC2918618, “Characterization of the TnsD-attTn7 complex that promotes site-specific insertion of Tn7” (Mobile DNA, 2010).

T1: TnsD wt (Escherichia coli (transposon Tn7)) (UniProt P13991)
T1 sequence: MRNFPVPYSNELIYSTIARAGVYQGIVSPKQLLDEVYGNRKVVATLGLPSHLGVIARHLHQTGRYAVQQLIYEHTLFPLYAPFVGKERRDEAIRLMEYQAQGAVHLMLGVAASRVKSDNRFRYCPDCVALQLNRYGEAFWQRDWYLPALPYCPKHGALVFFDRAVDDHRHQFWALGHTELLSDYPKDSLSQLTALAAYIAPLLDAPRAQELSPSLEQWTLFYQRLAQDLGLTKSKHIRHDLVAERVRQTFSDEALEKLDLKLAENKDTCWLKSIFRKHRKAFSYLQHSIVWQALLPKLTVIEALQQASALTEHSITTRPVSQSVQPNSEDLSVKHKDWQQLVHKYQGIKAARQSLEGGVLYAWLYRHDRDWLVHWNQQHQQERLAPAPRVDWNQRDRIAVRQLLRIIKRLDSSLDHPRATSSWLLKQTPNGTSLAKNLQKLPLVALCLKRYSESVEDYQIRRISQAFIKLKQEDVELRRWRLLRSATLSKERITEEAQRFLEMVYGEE

T2: TnsD (1 to 507) wt (E. coli (transposon Tn7), UniProt P13991 1-508)
T2 construct: TnsD, target site-selector protein of the bacterial transposon Tn7, residues 1 to 507 (full-length TnsD is 507 aa); TnsD was cloned into pDBLeu (ProQuest Two-Hybrid System); also called full-length TnsD; source: yeast two-hybrid fusion
T2 sequence (looked up): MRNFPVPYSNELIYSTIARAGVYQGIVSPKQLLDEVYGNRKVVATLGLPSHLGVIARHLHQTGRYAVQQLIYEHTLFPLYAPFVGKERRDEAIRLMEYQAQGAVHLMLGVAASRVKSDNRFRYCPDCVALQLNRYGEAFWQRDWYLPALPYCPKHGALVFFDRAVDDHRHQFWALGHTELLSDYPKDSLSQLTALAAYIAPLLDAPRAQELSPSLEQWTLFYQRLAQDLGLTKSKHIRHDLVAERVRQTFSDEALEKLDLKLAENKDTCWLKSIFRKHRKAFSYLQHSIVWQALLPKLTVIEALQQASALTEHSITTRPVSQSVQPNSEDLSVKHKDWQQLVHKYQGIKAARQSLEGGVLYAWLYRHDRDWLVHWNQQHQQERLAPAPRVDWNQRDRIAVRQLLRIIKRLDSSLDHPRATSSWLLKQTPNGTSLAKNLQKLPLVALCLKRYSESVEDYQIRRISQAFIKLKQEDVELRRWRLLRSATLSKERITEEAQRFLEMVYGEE

T3: TnsD (1 to 399) (E. coli (transposon Tn7), UniProt P13991 1-399)
T3 construct: TnsD of transposon Tn7, residues 1 to 399; source: yeast two-hybrid fusion
T3 sequence (looked up): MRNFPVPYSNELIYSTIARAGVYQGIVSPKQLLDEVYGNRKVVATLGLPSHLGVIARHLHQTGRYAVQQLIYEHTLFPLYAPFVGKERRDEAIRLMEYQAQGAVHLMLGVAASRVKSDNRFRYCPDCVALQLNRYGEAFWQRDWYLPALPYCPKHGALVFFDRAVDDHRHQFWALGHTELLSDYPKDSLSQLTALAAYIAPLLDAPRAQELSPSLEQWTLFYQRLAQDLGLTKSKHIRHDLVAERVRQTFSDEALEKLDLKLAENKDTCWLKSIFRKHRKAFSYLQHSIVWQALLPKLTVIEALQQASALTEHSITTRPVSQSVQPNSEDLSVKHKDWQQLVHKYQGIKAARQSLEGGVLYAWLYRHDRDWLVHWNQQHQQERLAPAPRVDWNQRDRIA

T4: TnsD (1 to 375) (E. coli (transposon Tn7), UniProt P13991 1-375)
T4 construct: TnsD of transposon Tn7, residues 1 to 375; source: yeast two-hybrid fusion
T4 sequence (looked up): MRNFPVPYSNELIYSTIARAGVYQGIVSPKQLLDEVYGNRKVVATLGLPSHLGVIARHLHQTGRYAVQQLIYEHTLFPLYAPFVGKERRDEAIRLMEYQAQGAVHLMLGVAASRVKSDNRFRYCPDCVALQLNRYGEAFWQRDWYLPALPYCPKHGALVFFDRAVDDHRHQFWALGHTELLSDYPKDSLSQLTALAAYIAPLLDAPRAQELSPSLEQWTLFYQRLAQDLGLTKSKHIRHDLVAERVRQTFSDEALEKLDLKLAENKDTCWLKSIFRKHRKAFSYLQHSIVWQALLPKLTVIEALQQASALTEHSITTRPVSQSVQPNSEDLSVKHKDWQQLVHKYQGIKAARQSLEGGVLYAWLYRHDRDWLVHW

T5: TnsD (1 to 350) (E. coli (transposon Tn7), UniProt P13991 1-350)
T5 construct: TnsD of transposon Tn7, residues 1 to 350; source: yeast two-hybrid fusion
T5 sequence (looked up): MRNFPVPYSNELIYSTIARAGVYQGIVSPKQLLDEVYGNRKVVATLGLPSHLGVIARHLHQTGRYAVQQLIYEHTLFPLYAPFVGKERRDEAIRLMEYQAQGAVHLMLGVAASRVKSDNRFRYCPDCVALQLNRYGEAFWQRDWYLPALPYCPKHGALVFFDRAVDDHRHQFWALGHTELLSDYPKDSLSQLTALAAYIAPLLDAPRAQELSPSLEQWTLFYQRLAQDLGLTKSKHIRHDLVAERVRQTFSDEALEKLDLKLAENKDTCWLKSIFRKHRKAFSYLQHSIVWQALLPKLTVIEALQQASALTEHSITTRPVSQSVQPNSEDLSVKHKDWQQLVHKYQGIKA

T6: TnsD (1 to 309) (E. coli (transposon Tn7), UniProt P13991 1-309)
T6 construct: TnsD of transposon Tn7, residues 1 to 309; source: yeast two-hybrid fusion
T6 sequence (looked up): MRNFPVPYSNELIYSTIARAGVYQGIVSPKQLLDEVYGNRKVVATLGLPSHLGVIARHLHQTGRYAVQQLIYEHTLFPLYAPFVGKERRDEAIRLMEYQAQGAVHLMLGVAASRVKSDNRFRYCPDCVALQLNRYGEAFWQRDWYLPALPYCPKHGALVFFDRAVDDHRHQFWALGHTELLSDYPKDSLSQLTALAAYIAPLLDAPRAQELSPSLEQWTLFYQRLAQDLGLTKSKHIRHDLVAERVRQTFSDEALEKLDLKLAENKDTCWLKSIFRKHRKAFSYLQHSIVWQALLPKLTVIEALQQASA


Columns and labels:
[1] = target: T1, TnsD wt (Escherichia coli (transposon Tn7)); assay: EMSA; settings: Gel-shift buffer not given (as described in ref. 6); TnsD stored in 500 mM KCl, 50 mM Tris-HCl pH 8.0, 1 mM EDTA, 2 mM DTT, 25% glycerol
[2] = target: RB; assay: two-hybrid; yeast two-hybrid (ProQuest Two-Hybrid System); TnsD in pDBLeu (Gal4-DB), TnsC in pPC86 (Gal4-AD); read-out β-galactosidase activity; empty vectors gave 0.075
RB, sequence (P06400 2-928): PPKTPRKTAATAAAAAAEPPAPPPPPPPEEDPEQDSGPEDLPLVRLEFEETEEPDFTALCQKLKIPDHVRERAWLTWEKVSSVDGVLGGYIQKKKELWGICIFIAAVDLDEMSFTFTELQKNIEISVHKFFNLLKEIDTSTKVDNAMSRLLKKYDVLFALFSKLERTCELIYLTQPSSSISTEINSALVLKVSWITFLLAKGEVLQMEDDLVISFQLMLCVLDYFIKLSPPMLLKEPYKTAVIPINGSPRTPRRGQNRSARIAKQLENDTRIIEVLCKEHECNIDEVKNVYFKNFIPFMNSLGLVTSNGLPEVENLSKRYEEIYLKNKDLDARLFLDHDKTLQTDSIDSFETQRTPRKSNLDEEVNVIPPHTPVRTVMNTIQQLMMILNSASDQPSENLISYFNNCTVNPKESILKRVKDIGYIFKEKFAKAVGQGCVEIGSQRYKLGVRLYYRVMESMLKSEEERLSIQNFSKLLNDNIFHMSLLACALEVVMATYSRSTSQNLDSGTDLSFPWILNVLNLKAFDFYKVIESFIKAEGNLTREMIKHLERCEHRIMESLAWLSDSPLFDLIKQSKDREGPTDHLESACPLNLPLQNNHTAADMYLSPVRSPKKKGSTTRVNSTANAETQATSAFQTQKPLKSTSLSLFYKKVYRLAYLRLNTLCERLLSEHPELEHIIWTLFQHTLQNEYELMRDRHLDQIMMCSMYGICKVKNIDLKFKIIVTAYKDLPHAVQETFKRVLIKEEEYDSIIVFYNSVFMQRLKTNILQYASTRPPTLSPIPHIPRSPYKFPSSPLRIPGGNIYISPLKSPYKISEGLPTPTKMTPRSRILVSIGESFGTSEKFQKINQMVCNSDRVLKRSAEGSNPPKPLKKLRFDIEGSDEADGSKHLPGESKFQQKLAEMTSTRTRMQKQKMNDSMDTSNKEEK

[3] = target: Jun; assay: as above
Jun, sequence (P05627 whole entry): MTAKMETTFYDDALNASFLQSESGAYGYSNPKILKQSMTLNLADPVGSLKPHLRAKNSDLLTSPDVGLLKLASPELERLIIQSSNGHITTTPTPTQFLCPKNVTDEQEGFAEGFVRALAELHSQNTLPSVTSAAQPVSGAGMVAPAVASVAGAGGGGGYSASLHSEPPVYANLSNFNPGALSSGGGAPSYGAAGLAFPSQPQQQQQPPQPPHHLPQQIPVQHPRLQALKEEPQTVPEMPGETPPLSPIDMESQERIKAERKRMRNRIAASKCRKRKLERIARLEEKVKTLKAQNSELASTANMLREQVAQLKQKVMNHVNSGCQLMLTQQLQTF

[4] = target: T2, TnsD (1 to 507) wt; assay: as above; settings: partners not purified
[5] = target: T3, TnsD (1 to 399); assay: as above; settings: partners not purified
[6] = target: T4, TnsD (1 to 375); assay: as above; settings: partners not purified
[7] = target: T5, TnsD (1 to 350); assay: as above; settings: partners not purified
[8] = target: T6, TnsD (1 to 309); assay: as above; settings: partners not purified

Fos (natural protein), sequence (P12841 whole entry): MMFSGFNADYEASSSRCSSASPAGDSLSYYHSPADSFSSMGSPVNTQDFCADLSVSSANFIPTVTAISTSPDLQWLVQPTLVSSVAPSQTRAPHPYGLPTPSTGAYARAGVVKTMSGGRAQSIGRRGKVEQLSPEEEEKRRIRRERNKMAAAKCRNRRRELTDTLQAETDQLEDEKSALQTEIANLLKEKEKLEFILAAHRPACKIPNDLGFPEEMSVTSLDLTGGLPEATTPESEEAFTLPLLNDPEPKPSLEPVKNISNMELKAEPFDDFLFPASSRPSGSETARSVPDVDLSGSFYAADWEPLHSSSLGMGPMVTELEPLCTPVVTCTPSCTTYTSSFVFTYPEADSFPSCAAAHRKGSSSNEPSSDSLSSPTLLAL
E2F1 (natural protein), sequence (Q01094 whole entry): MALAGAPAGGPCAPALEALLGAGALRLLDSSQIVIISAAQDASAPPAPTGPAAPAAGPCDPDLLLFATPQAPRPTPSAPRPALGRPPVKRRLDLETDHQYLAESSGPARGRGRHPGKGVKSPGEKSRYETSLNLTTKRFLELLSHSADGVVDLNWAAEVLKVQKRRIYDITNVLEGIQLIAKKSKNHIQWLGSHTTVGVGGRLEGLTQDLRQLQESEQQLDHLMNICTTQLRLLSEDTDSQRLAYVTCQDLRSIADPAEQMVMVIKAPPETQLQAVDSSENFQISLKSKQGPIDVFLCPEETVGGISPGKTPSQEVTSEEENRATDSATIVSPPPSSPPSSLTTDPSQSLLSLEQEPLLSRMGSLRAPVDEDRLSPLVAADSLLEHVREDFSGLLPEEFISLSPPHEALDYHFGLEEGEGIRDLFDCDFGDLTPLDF

Molecule	binding signal (relative to wt site) [1]	further results
CCGCGTAACCTGGCAAAATCGGTTACGTTTGAGTAA (double strand) [attTn7 +31 mutant]	< 0.2	
CCGCGTAACCTGGCAAAATCGGTTACGGGTGAGTAA (double strand) [attTn7 +30 mutant]	0.5	
CCGCGTAACCTGGCAAAATCGTTTACGGTTGAGTAA (double strand) [attTn7 +37 mutant]	0.5	
CCGCGTAACCTGGCAAAATCGGTTAAGGTTGAGTAA (double strand) [attTn7 +33 mutant]	< 0.2	
E2F1 (natural protein)		β-galactosidase activity [2]: 1
CCGCGTAACCTGGCAACATCGGTTACGGTTGAGTAA (double strand) [attTn7 +42 mutant]	< 0.2	
CCGCGTACCCTGGCAAAATCGGTTACGGTTGAGTAA (double strand) [attTn7 +51 mutant]	< 0.2	
CCGCGTAACCTGGAAAAATCGGTTACGGTTGAGTAA (double strand) [attTn7 +45 mutant]	< 0.2	
CCGCGTCACCTGGCAAAATCGGTTACGGTTGAGTAA (double strand) [attTn7 +52 mutant]	0.5	
CCGCTTAACCTGGCAAAATCGGTTACGGTTGAGTAA (double strand) [attTn7 +54 mutant]	< 0.2	
CCGCGTAACCGGGCAAAATCGGTTACGGTTGAGTAA (double strand) [attTn7 +48 mutant]	0.5	
CCGCGTAACCTGGCACAATCGGTTACGGTTGAGTAA (double strand) [attTn7 +43 mutant]	< 0.2	
Fos (natural protein)		β-galactosidase activity [3]: 5
TnsC (1 to 293) (domain or fragment, E. coli (transposon Tn7), UniProt P05846 1-293, looked up, TnsC of transposon Tn7, residues 1 to 293; source: yeast two-hybrid fusion) MSATRIQAVYRDTGVEAYRDNPFIEALPPLQESVNSAASLKSSLQLTSSDLQKSRVIRAHTICRIPDDYFQPLGTHLLLSERISVMIRGGYVGRNPKTGDLQKHLQNGYERVQTGELETFRFEEARSTAQSLLLIGCSGSGKTTSLHRILATYPQVIYHRELNVEQVVYLKIDCSHNGSLKEICLNFFRALDRALGSNYERRYGLKRHGIETMLALMSQIANAHALGLLVIDEIQHLSRSRSGGSQEMLNFFVTMVNIIGVPVMLIGTPKAREIFEADLRSARRGAGFGAIFW		β-galactosidase activity [4]: 0.2
TnsC (1 to 480) (domain or fragment, E. coli (transposon Tn7), UniProt P05846 1-480, looked up, TnsC of transposon Tn7, residues 1 to 480; also called TnsC with deletion of 75 amino acids from the C terminus; source: yeast two-hybrid fusion) MSATRIQAVYRDTGVEAYRDNPFIEALPPLQESVNSAASLKSSLQLTSSDLQKSRVIRAHTICRIPDDYFQPLGTHLLLSERISVMIRGGYVGRNPKTGDLQKHLQNGYERVQTGELETFRFEEARSTAQSLLLIGCSGSGKTTSLHRILATYPQVIYHRELNVEQVVYLKIDCSHNGSLKEICLNFFRALDRALGSNYERRYGLKRHGIETMLALMSQIANAHALGLLVIDEIQHLSRSRSGGSQEMLNFFVTMVNIIGVPVMLIGTPKAREIFEADLRSARRGAGFGAIFWDPIQQTQRGKPNQEWIAFTDNLWQLQLLQRKDALLSDEVRDVWYELSQGVMDIVVKLFVLAQLRALALGNERITAGLLRQVYQDELKPVHPMLEALRSGIPERIARYSDLVVPEIDKRLIQLQLDIAAIQEQTPEEKALQELDTEDQRHLYLMLKEDYDSSLLIPTIKKAFSQNPTMTRQKLLPLVL		β-galactosidase activity [4]: 1
TnsC (1 to 384) (domain or fragment, E. coli (transposon Tn7), UniProt P05846 1-384, looked up, TnsC of transposon Tn7, residues 1 to 384; also called TnsC with deletion of 171 amino acids from the C terminus; source: yeast two-hybrid fusion) MSATRIQAVYRDTGVEAYRDNPFIEALPPLQESVNSAASLKSSLQLTSSDLQKSRVIRAHTICRIPDDYFQPLGTHLLLSERISVMIRGGYVGRNPKTGDLQKHLQNGYERVQTGELETFRFEEARSTAQSLLLIGCSGSGKTTSLHRILATYPQVIYHRELNVEQVVYLKIDCSHNGSLKEICLNFFRALDRALGSNYERRYGLKRHGIETMLALMSQIANAHALGLLVIDEIQHLSRSRSGGSQEMLNFFVTMVNIIGVPVMLIGTPKAREIFEADLRSARRGAGFGAIFWDPIQQTQRGKPNQEWIAFTDNLWQLQLLQRKDALLSDEVRDVWYELSQGVMDIVVKLFVLAQLRALALGNERITAGLLRQVYQDELKPVHP		β-galactosidase activity [4]: 1
TnsC (1 to 555) wt (natural protein, E. coli (transposon Tn7), UniProt P05846 1-555, looked up, TnsC, transposition protein of the bacterial transposon Tn7, residues 1 to 555 (full-length is 555 aa); TnsC was cloned into pPC86 (ProQuest Two-Hybrid System); also called full-length TnsC; source: yeast two-hybrid fusion) MSATRIQAVYRDTGVEAYRDNPFIEALPPLQESVNSAASLKSSLQLTSSDLQKSRVIRAHTICRIPDDYFQPLGTHLLLSERISVMIRGGYVGRNPKTGDLQKHLQNGYERVQTGELETFRFEEARSTAQSLLLIGCSGSGKTTSLHRILATYPQVIYHRELNVEQVVYLKIDCSHNGSLKEICLNFFRALDRALGSNYERRYGLKRHGIETMLALMSQIANAHALGLLVIDEIQHLSRSRSGGSQEMLNFFVTMVNIIGVPVMLIGTPKAREIFEADLRSARRGAGFGAIFWDPIQQTQRGKPNQEWIAFTDNLWQLQLLQRKDALLSDEVRDVWYELSQGVMDIVVKLFVLAQLRALALGNERITAGLLRQVYQDELKPVHPMLEALRSGIPERIARYSDLVVPEIDKRLIQLQLDIAAIQEQTPEEKALQELDTEDQRHLYLMLKEDYDSSLLIPTIKKAFSQNPTMTRQKLLPLVLQWLMEGETVVSELEKPSKSKKVSAIKVVKPSDWDSLPDTDLRYIYSQRQPEKTMHERLKGKGVIVDMASLFKQAG		β-galactosidase activity [4]: 1; β-galactosidase activity [5]: 4.5; β-galactosidase activity [6]: 5; β-galactosidase activity [7]: 4.5; β-galactosidase activity [8]: 4.5
